Values belong to the molecule of their own block, whether it stands above or below them.
Assays:
hIL-17RA/RC = molecular target: T1, hIL-17RA/RC (Homo sapiens, UniProt Q8NAC3+Q96F46); test: hADIR-17 dmCherry reporter assay (clonal cell line); format: cell-based; details: activator screen, increasing doses (FIG. 12)
T1 construct: expressed in transfected cells; host or cells: MEF cells stably transduced with retroviral constructs (clonal hADIR-17 line)
T1 sequence (Q96F46 33-866): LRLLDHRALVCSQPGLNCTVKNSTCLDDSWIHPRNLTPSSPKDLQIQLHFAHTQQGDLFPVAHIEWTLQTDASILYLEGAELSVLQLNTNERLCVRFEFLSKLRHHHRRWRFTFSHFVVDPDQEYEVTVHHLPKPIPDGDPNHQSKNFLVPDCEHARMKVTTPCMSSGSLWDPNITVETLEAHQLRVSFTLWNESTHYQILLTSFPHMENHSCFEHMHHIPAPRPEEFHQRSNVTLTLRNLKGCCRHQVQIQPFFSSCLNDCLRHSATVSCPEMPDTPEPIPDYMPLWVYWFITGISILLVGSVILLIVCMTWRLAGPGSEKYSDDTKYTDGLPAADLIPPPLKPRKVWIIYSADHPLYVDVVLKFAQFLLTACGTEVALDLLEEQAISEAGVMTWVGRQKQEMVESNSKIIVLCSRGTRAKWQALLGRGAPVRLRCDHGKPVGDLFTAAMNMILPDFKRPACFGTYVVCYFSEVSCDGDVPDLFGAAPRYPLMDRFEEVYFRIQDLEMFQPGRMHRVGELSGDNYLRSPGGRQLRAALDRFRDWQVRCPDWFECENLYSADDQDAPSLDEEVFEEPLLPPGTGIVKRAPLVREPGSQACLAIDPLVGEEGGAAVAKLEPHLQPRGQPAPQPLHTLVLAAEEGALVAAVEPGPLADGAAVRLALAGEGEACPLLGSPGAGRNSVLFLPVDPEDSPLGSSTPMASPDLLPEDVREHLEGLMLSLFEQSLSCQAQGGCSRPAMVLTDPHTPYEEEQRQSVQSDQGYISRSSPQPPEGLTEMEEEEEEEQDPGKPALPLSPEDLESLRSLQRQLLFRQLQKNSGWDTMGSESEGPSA
T1 sequence (Q8NAC3 21-705 isoform Q8NAC3-3 limits assumed): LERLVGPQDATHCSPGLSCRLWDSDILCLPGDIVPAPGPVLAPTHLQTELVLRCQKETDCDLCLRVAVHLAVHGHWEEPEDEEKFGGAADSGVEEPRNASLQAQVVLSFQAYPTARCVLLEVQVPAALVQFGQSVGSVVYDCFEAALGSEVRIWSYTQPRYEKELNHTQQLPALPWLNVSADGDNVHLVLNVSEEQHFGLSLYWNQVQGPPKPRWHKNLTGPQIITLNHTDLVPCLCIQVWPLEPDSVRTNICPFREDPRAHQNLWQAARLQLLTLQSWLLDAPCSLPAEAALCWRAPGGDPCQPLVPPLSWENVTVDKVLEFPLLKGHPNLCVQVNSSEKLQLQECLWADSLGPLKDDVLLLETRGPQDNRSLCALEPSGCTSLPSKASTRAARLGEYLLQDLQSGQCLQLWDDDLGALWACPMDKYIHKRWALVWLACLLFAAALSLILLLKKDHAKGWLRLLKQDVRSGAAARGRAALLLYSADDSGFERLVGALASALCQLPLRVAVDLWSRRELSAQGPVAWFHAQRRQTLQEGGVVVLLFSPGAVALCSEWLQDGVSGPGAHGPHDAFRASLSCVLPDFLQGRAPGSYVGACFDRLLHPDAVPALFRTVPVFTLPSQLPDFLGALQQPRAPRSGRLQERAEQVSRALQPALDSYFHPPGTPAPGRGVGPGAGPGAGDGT
Experimental: FIG. 9 provides a graphical depiction of constructs for use with human IL-17 receptors. Similar retroviral transfer plasmid constructs as mouse, with human cDNA sequences replacing mouse cDNA. Exogenous hIL-17RA is provided for a functional hADIR system. hIL-17RC, RB, RE constructs are added last separately to MEF cells already stably transduced with the other three required components, generating 3 independent cell lines.
(§1) Mouse constructs were produced as depicted in the panels of FIG. 1. Human sequence constructs were produced as in the panels of FIG. 9, where mouse cDNA constructs were replaced by human cDNA constructed. In the mouse ADIR system exogenous IL-17RC was not provided because the cell line (mouse embryonic fibroblasts) have endogenous IL-17RC expression. In the hADIR system, human components used for the hADIR system (hRA, hRC, hRB, hAct1) were expressed from added polynucleotides.
The data reflected in the Figures utilized a reporter system specifically designed for Act1-dependent IL-17 signaling pathways. The reporter system is based at least in part on the principle that the engagement of active cognate ligands, and the interaction between Act1 and IL-17 receptors is required for active signaling of IL-17A/F, IL-17E, and IL-17C. The protein-protein-interaction (PPI) based reporter system is highly specific and easily scalable. The disclosure is illustrated using mouse and human systems. For the data presented in the Figures, the system comprised a three-part reporter system specifically designed for detecting IL-17A/F, IL-17E, and IL-17C signaling. The PPI-based reporter system provides for detecting active signaling, and is specific for each of the IL-17 family cytokines. […] Each of the retroviral vectors can contain a unique selection or fluorescent marker to enable efficient generation and maintenance of stable cell lines (for example, Puromycin resistance for m/hIL-17RC(RB, RE)-TSC-tTA; EBFP for m/hAct1-TEV; Neomycin resistance and mVenus fluorescence for TRE-dmCherry-PEST, and Thy1.1 for m/hRA).

IL-17RA/RC = molecular target: T2, IL-17RA/RC (Mus musculus, UniProt Q60943+Q8K4C2); test: mADIR-17 dmCherry reporter assay in MEF cells (flow cytometry); format: cell-based; details: for dmCherry signal produced: after 24 hrs (FIG. 7)
T2 construct: Full length IL-17RC in the purified ADIR system; expressed in transfected cells; host or cells: mouse embryonic fibroblasts (MEF), retrovirally transduced
T2 sequence (Q60943 32-864): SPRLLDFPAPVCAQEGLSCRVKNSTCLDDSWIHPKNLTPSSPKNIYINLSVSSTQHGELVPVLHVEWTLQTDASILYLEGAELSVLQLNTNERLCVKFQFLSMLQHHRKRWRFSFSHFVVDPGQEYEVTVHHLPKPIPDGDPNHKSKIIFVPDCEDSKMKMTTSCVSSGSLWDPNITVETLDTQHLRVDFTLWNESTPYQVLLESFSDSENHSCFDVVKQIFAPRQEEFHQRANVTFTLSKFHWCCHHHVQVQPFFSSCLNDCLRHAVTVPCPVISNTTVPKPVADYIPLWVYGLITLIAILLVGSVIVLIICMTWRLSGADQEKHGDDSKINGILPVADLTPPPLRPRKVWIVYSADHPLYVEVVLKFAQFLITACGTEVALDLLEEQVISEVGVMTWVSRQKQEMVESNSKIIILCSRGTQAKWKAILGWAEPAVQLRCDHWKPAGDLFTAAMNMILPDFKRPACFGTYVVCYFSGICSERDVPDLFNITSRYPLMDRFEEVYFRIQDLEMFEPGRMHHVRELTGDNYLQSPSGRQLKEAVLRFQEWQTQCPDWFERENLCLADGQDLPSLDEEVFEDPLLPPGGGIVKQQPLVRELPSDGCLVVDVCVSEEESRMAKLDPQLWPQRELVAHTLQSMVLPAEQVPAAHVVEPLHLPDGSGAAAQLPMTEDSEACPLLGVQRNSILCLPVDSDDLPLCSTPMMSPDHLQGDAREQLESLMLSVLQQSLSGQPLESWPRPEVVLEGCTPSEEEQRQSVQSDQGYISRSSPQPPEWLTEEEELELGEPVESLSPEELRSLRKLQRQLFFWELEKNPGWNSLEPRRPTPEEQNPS
T2 sequence (Q8K4C2 22-698): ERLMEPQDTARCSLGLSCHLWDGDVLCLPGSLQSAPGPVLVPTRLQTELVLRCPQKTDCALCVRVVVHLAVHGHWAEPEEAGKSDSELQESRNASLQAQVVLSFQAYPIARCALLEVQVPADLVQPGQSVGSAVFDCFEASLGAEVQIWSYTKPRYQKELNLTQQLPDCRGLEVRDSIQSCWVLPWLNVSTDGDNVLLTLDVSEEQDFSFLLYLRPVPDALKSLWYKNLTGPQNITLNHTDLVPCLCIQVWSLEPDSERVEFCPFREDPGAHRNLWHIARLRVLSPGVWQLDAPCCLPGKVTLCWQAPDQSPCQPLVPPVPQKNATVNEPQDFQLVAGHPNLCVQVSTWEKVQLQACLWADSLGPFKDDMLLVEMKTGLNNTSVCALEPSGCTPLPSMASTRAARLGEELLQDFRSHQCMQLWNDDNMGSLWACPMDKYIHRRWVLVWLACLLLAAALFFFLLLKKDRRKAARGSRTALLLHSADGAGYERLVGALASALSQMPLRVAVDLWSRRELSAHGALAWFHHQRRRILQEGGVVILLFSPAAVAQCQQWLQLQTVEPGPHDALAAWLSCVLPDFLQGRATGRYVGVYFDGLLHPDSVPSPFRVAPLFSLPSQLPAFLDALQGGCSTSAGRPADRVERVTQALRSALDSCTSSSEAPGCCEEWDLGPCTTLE
From the text: Unless defined otherwise herein, all technical and scientific terms used in this disclosure have the same meaning as commonly understood by one of ordinary skill in the art to which this disclosure pertains. Where the term “ADIR” is used herein it means ACT1-Dependent IL-17 Receptor Modulator Screening System. The preface “m” means mouse and the prefix “h” means human.
as §1
The data reflected in the Figures utilized a reporter system specifically designed for Act1-dependent IL-17 signaling pathways. The reporter system is based at least in part on the principle that the engagement of active cognate ligands, and the interaction between Act1 and IL-17 receptors is required for active signaling of IL-17A/F, IL-17E, and IL-17C. The protein-protein-interaction (PPI) based reporter system is highly specific and easily scalable. The disclosure is illustrated using mouse and human systems. For the data presented in the Figures, the system comprised a three-part reporter system specifically designed for detecting IL-17A/F, IL-17E, and IL-17C signaling. The PPI-based reporter system provides for detecting active signaling, and is specific for each of the IL-17 family cytokines. The system that is responsive to binding of IL-17A and IL-17F comprises (1) an Act1-tobacco etch virus (TEV) protease fusion protein, which upon active IL-17A/F binding to the IL-17RA/RC receptor heterodimer on a target cell, will be recruited to (2) IL-17RC fused with a TEV cleavage site(TSC)-tTA (a transcriptional transactivator that binds to tetracycline responsive element, or TRE), releasing tTA, which will subsequently translocate into the nucleus where a (3) TRE-dmCherry-PEST (destabilized mCherry) element is integrated into the genome. tTA binds to the TRE to drive dmCherry expression in the target modified cell. The three described components, Act1-TEV, IL-17RC-TSC-tTA, and TRE-dmCherry-PEST, along with IL-17RA, can be delivered by retro or lenti-viral vectors or guide-RNA directed nucleases, or recombinase systems, or by homologous recombination, into mouse embryonic fibroblasts (MEF) or other mammalian cell lines, establishing stable reporter cell lines. Using the same principle, IL-17RC-TSC-tTA can be replaced with IL-17RB-TSC-tTA in the described system to provide for IL-17E (IL-25) binding, and with IL-17RE-TSC-tTA for detecting IL-17C binding. A parallel approach involves attaching the fusion protein of —TSC-tTA to the RA component and three independent system cell lines generated by supplementing RC/RB/RE, Act1-TEV, and TRE-dmCherry reporter components. Each of the retroviral vectors can contain a unique selection or fluorescent marker to enable efficient generation and maintenance of stable cell lines (for example, Puromycin resistance for m/hIL-17RC(RB, RE)-TSC-tTA; EBFP for m/hAct1-TEV; Neomycin resistance and mVenus fluorescence for TRE-dmCherry-PEST, and Thy1.1 for m/hRA).

B1: IL-25: IL-25 (IL17E), noncognate ligand for the mADIR-17 system; binds IL-17RA/RB (protein, UniProt Q8VHH8 17-169, looked up)
Interleukin-25: VSLRIQEGCSHLPSCCPSKEQEPPEEWLKWSSASVSPPEPLSHTHHAESCRASKDGPLNSRAISPWSYELDRDLNRVPQDLYHARCLCPHCVSLQTGSHMDPLGNSVPLYHNQTVFYRRPCHGEEGTHRRYCLERRLYRVSLACVCVRPRVMA
- responsiveness of mADIR-17 cells (dmCherry signal) to ligand (IL-17RA/RC; noncognate ligand, any doses, after 24 hrs, listed as mIL-17E): not responsive

B2: IL-17F: mouse IL-17 family cytokine, cognate ligand of IL-17RA/RC (protein, UniProt Q7TNI7 29-161, looked up)
Interleukin-17F: RKNPKAGVPALQKAGNCPPLEDNTVRVDIRIFNQNQGISVPREFQNRSSSPWDYNITRDPHRFPSEIAEAQCRHSGCINAQGQEDSTMNSVAIQQEILVLRREPQGCSNSFRLEKMLLKVGCTCVKPIVHQAA
- dmCherry signal produced (IL-17RA/RC; 0.4 ng/ml): 0.48%
- dmCherry signal produced (IL-17RA/RC; 2 ng/ml): 0.81%
- dmCherry signal produced (IL-17RA/RC; 10 ng/ml): 3.32%
- dmCherry signal produced (IL-17RA/RC; 50 ng/ml): 13.8%

The remaining lines, values ahead:

- dmCherry signal response of hADIR-17 clone to ligand (hIL-17RA/RC): dose-dependent response
Molecule: hIL-17A: human IL-17A cytokine, cognate ligand in the hADIR-17 system

- dmCherry signal response of hADIR-17 clone to ligand (hIL-17RA/RC): dose-dependent response
Molecule: hIL-17F: human IL-17F cytokine, cognate ligand in the hADIR-17 system

- dmCherry signal response of hADIR-17 clone to ligand (hIL-17RA/RC): does not respond
B3: hIL-25: human IL-25, non-cognate ligand for hADIR-17; cognate ligand of the hADIR-25 system (protein, UniProt Q9H293 33-177, looked up)
Interleukin-25: YSHWPSCCPSKGQDTSEELLRWSTVPVPPLEPARPNRHPESCRASEDGPLNSRAISPWRYELDRDLNRLPQDLYHARCLCPHCVSLQTGSHMDPRGNSELLYHNQTVFYRRPCHGEKGTHKGYCLERRLYRVSLACVCVRPRVMG

From patent US20230332136A1, “IL-17 RECEPTOR MODULATOR SCREENING SYSTEM” (New York University, priority 2022, published 2023)
